Source: patent US20180214569A1 (Regeneron, published 2018)

T1: HlgB (GS) (Staphylococcus aureus, UniProt P0A077 26-325)
T1 sequence: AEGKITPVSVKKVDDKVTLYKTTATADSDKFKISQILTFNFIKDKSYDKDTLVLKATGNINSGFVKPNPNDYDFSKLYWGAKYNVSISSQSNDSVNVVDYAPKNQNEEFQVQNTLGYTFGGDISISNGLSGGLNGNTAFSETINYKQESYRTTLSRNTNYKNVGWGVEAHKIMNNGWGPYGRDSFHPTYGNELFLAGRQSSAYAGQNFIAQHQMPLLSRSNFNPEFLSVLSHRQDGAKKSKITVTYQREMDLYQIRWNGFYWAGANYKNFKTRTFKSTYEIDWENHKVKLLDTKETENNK

T2: LukD (GS) (Staphylococcus aureus, UniProt O54082 27-327)
T2 sequence: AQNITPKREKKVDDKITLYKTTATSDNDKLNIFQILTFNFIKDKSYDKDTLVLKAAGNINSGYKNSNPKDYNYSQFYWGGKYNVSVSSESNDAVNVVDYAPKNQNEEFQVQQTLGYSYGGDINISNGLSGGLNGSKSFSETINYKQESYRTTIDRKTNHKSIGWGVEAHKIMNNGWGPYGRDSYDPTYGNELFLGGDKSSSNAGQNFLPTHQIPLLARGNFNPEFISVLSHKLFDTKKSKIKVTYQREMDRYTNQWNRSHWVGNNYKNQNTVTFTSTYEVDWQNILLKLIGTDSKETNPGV


Experiments:
Assay in all cases: ELISA, plate coated with toxin component
HlgB (GS) = biological target: T1, HlgB (GS)
Procedure: (§1) MaxiSorp microtiter plates were coated overnight with 10 μg/mL of individual F-components of S. aureus bicomponent toxins per well. Recombinant toxin components were either obtained from IBT BioServices (Gaithersburg, Md.) or generated by GenScript (Piscataway Township, N.J.). […] Wells were washed 3 times and then incubated with 100 ng/mL anti-human HRP secondary antibody per well for one hour at 25° C. 100 μL of SuperSignal ELISA Pico Chemiluminescent Substrate, (ThermoFisher Scientific) was added to the wells and signal was detected (Victor X3 plate reader, Perkin Elmer). Luminescence values were analyzed by a three-parameter logistic equation over an 11-point response curve (GraphPad Prism). Isotype-matched irrelevant control antibody and S. aureus delta toxin were included as controls.

S. aureus delta toxin = S. aureus delta toxin (Staphylococcus aureus, UniProt P0C1V1 1-26)
Procedure: as §1

LukD (GS) = biological target: T2, LukD (GS)
Procedure: as §1

Binder | binding result (HlgB (GS)) | binding result (S. aureus delta toxin) | binding result (LukD (GS))
H1H15378P (antibody, V domains shown) VH: EVQLVESGGGLVQPGGSLRLSCAASGFTFNNYEMNWVRQAPGKGLEWVSFISSSGSTIDYAVSVKGRFTISRDNAKNSLYLQMNSLRPGDTAVYYCARARLDFYYYGMDVWGQGTTVTVSS VL: DIQMTQSPSSLSASVGDRVTITCRASQGISNYLAWFQQKPGKAPKSLIYATSTLQSGVPSKFSGSGSGTDFTLTISSLQPEDFATYYCQQYNSFPLTFGGGTKVEIK | no binding (tested: titration 50 uM-100 pM) | no binding (tested: titration 50 uM-100 pM) | no binding (tested: titration 50 uM-100 pM)
H1H15408P (antibody, V domains shown) VH: EVQLVESGGGLVQPGGSLRLSCAASGFTFSRYDMSWVRQAPGKGLEWVSAISYSGDSTYYADSVQGRFTISRDNSKNTLYLQMNSLRAEDTALYHCAKDNGYSGTYYYYYGMDVWGQGTTVTVSS VL: DIQMTQSPSSLSASVGDRVTITCRASQGISNYLAWFQQKPGKAPKFLIYAASSLQSGVPSKFSGSGSGTDFTLTISSLQPEDFATYYCQQYNSYPYTFGQGTKLEIK | no binding (tested: titration 50 uM-100 pM) | no binding (tested: titration 50 uM-100 pM) | no binding (tested: titration 50 uM-100 pM)
H1H15379P (antibody, V domains shown) VH: EVQLVESGGGLVQPGWSLRLSCAASGFTFDDYAMHWVRQAPGKGLEWVSGISWNSDDIDYTDSVKGRFTVSRDNAKNSLYLQMNSLRADDTAFYYCVRQRVRGYYYFGMDVWGQGTTVTVSS VL: DIQMTQSPSSLSASVGDRVTITCRASQGISNYLAWFQQKPGKAPMSLIYAASSLQSGVPSKFSGSGSGTDFTLTISSLQPEDFATYYCQQYNSYPFTFGPGTKVDIK | no binding (tested: titration 50 uM-100 pM) | no binding (tested: titration 50 uM-100 pM) | no binding (tested: titration 50 uM-100 pM)
H1H15418P2 (antibody, V domains shown) VH: QVQLVESGGGLVRPGGSLRLSCEASGFTFNEHYMSWIRQAPGKGLEWVAFISSGGSIIYYADSVKGRFTISRDSAKNSLYLQMNSLRPEDTAIYYCAREPFGGIIVFDYWGQGTLVTVSS VL: not shown | no binding (tested: titration 50 uM-100 pM) | no binding (tested: titration 50 uM-100 pM) | no binding (tested: titration 50 uM-100 pM)
H1H15405P (antibody, V domains shown) VH: EVQLVESGGGLVQPGGSLRLSCGASGFTFSYYWMTWVRQAPGKGLEWVANINQDGSEKFYVDSVRGRFTISRDNAKKSLYLQMNSLRAEDTAVYYCARDGYCSSIGCYNLYGMDVWGQGTTVTVSS VL: DIQMTQSPSSLSASVGDRVTITCRASQNINKYLNWYQQKPGQAPKLLIYTTSSLQSGVPSRFSGSGSGTDFTLTISSLQPEDFATYSCQQSYNSPLTFGGGTKVEIK | no binding (tested: titration 50 uM-100 pM) | no binding (tested: titration 50 uM-100 pM) | no binding (tested: titration 50 uM-100 pM)
H1H15414P (antibody, V domains shown) VH: EVQLVESGGDLVQPGGSLRLSCAASGFTFSSFEMNWVRQAPGKGLEWVSYISSSGSTIYYADSVKDRFTVSRDKDKNSLYLQMNSLRAEDTAVYYCARGSWNQPYFDYWGQGTLVTVSS VL: DIQMTQSPSTLSASVGDRVTITCRASQSISSWLAWYQLKPGKAPKVLIYKASSLESGVPSRFSGSGSGTEFTLTINSLQPDDFATYYCQQYNSWTFGQGTKVEIK | no binding (tested: titration 50 uM-100 pM) | no binding (tested: titration 50 uM-100 pM) | no binding (tested: titration 50 uM-100 pM)
H1H15399P (antibody, V domains shown) VH: EVQLVESGGGLVQPGGSLRLSCAASGFTFSSSAMSWVRQAPGKGLEWVSTLNVGADSTFYAGSVRGRFTISRDNSKNTLFLQMNSLRAEDTAVYYCAKDWGGIPYYYYYYGMDVWGQGTTVTVSS VL: DIQLTQSPSFLSASVGDRVTITCWASQGISSYLAWYQQKPGKAPNLLIYTASTLQSGVPSRFSGSGSGTEFTLTISSLQPEDFATYYCQQLNSYPLTFGGGTKVEIK | no binding (tested: titration 50 uM-100 pM) | no binding (tested: titration 50 uM-100 pM) | no binding (tested: titration 50 uM-100 pM)
H1H15380P (antibody, V domains shown) VH: QVQLQESGPGLVKPSETLSLMCTVSGGSINNYYWSWIRQPPGKGLEWIGYIYNGGITKYNPSLKSRVTISVDTSKSQISLKLNSVTAADTAFYYCTKEQLERREGHIWFDPWGQGTLVTVSS VL: DIQMTQSPSSLSASVGDRVTITCRASQTINNYLNWYHQKPGKAPKLLIYGTSSLQSGVPSRFSGSGSGTEFALTISSLQPEDFATYYCQQSSSTPYTFGQGTKLEIK | no binding (tested: titration 50 uM-100 pM) | no binding (tested: titration 50 uM-100 pM) | no binding (tested: titration 50 uM-100 pM)
H1H15377P (antibody, V domains shown) VH: EVQLVESGGGLVQPGGSLRLSCAASGFTFTSYEMNWVRQAPGKGLEWISYISSGGDTKYYADSVRGRFTISRDNAKNSLYLQMNSLRAEDTALYYCARDVLNWVFDYWGRGTLVTVSS VL: DIQMTQSPSSLSASVGDRVTITCRASQSIGKYLNWYRQSPGKAPKLLIYATSSLQSGVPSSFSGSGSGTDFTLTISSLQPEDFATYYCQQGFRTPFTFGPGTKVDIK | no binding (tested: titration 50 uM-100 pM) | no binding (tested: titration 50 uM-100 pM) | no binding (tested: titration 50 uM-100 pM)
H1H15404P (antibody, V domains shown) VH: QVQLQESGPGLVKPSETLSLTCTVSGGSISGYFWGWIRQTPGKGLEWIGYIFYSGSTHYNPSFKSRVTMSVDTSKNQFALKLRSVTAADTAKYYCSRQREYYGSGNYRYFGMDVWGQGTTVTVSS VL: AIQMTQSPSSLSASVGERVTITCRASQDIRDDLGWYQQRPGKAPNLLIYAASSLHSGVPSRFSGSGSGTDFTLTISSLQPEDFATYYCLQDYNYPWTFGQGTKVEIK | no binding (tested: titration 50 uM-100 pM) | no binding (tested: titration 50 uM-100 pM) | no binding (tested: titration 50 uM-100 pM)
H1H15410P (antibody, V domains shown) VH: QVQLQESGPGLVKPSETLSLTCTVSGGSISGYFWGWVRQPPGKGLEWIGYIFYSGSTNYNPSLKSRITLSVDTSKNQFSLKLSSVTAADTAIYYCARHREYYGSGNYRYYALDVWGQGTTVTVSS VL: AIQMTQSPSSLSASVGDRVTITCRASQGIRDDLGWYQQKPGKAPKLLIYAASSLQSGVPSRFSGSGSGTDFTLTISSLQPEDFATYYCLQDYNFPLTFGQGTKVEIK | no binding (tested: titration 50 uM-100 pM) | no binding (tested: titration 50 uM-100 pM) | no binding (tested: titration 50 uM-100 pM)
H1H15375P (antibody, V domains shown) VH: QVQLVESGGGGVQPGRSLRLSCEASGFTFSDYGMQWVRQAPGKGLEWVAVIWDDGRKKYYADSVKGRFTVSRDNSKNTLYLEINSLRVEDTAVYYCAREGSSSSGRYFLYGMDVWGQGTTVTVSS VL: DIQMTQSPSSLSASVGDRVTITCRASQRISSYLNWYQQKLGKAPKLLISVASSLQSGVPSRFSGSGSGTDFTLTISSLQPEDFGIYYCQQSYNTPPWTFGQGTKVEIK |  | no binding (tested: titration 50 uM-100 pM) | 
